According to patent US20030199671A1, “Binding molecules for Fc-region polypeptides” (priority 2001, published 2003):
Starred links: 1 amine or outer side, 2 acyl side, 3 side chain; linkers in the order of their positions; H or OH if unused. Primed or numbered codes have the meaning given here. code X″ = C-terminal linker unit, -NH-(CH2CH2O)2-CH2CH2- (X-NH2 = -NH-(CH2CH2O)2-CH2CH2-NH2), C(COCCOCC[*:2])N[*:1]; Su = not defined here

What was measured:
[1] = biological target: human IgG (unfractionated, polyclonal); experiment: total dynamic capacity
[2] = biological target: human IgG (unfractionated, polyclonal); experiment: filterplate; 25 mg human IgG applied per ml resin

Binder | Dynamic Cap. [1] | Static Cap. [2]
Ac-GDDHMCVYTTWGELIWCDNHEPGPEG-{NH‑(CH2CH2O)2‑CH2CH2‑NH2} (not fully specified (bridges); printed as Ac-GDDHMCVYTTWGELIWCDNHEPGPEG-X-NH2; cysteine pairing not given here) [DX877] | 8 mg/mL | 20 mg/mL
Ac-GDDHMCVYTTWGELIWCDNHEPG-{code X″-Su-code X″-NH2} (not fully specified (bridges); printed as Ac-GDDHMCVYTTWGELIWCDNHEPG-X-Su-X-NH2; cysteine pairing not given here; reading uncertain) [DX878] | 9 mg/mL | 23 mg/mL
